Source: patent US20260167699A1 (Chugai, published 2026)

B1: GpH7-A5/GpH7-B3 variant P271_11K/GpL16-k0 (antibody, human IgG1, kappa)
heavy 1: not shown
heavy 2: not shown
light: DIVMTQSPLSLPVTPGEPASISCQASESLVHSNRNTYLHWYLQKPGQSPQLLIYKVSNRFSGVPDRFSGSGSGTDFTLKISRVEAEDVGVYYCSQNTHVPPTFGQGTKVEIERTVAAPSVFIFPPSDEQLKSGTASVVCLLNNFYPREAKVQWKVDNALQSGNSQESVTEQDSKDSTYSLSSTLTLSKADYEKHKVYACEVTHQGLSSPVTKSFNRGEC
notes: copies: 1 + 1 + 2
B2: GpH7-A5/GpH7-B3 variant P271_12R/GpL16-k0 (antibody, human IgG1, kappa)
heavy 1: not shown
heavy 2: not shown
light: DIVMTQSPLSLPVTPGEPASISCQASESLVHSNRNTYLHWYLQKPGQSPQLLIYKVSNRFSGVPDRFSGSGSGTDFTLKISRVEAEDVGVYYCSQNTHVPPTFGQGTKVEIERTVAAPSVFIFPPSDEQLKSGTASVVCLLNNFYPREAKVQWKVDNALQSGNSQESVTEQDSKDSTYSLSSTLTLSKADYEKHKVYACEVTHQGLSSPVTKSFNRGEC
notes: copies: 1 + 1 + 2
B3: GpH7-A5/GpH7-B3 variant P271_13S/GpL16-k0 (antibody, human IgG1, kappa)
heavy 1: not shown
heavy 2: not shown
light: DIVMTQSPLSLPVTPGEPASISCQASESLVHSNRNTYLHWYLQKPGQSPQLLIYKVSNRFSGVPDRFSGSGSGTDFTLKISRVEAEDVGVYYCSQNTHVPPTFGQGTKVEIERTVAAPSVFIFPPSDEQLKSGTASVVCLLNNFYPREAKVQWKVDNALQSGNSQESVTEQDSKDSTYSLSSTLTLSKADYEKHKVYACEVTHQGLSSPVTKSFNRGEC
notes: copies: 1 + 1 + 2
B4: GpH7-A5/GpH7-B3 variant P271_14T/GpL16-k0 (antibody, human IgG1, kappa)
heavy 1: not shown
heavy 2: not shown
light: DIVMTQSPLSLPVTPGEPASISCQASESLVHSNRNTYLHWYLQKPGQSPQLLIYKVSNRFSGVPDRFSGSGSGTDFTLKISRVEAEDVGVYYCSQNTHVPPTFGQGTKVEIERTVAAPSVFIFPPSDEQLKSGTASVVCLLNNFYPREAKVQWKVDNALQSGNSQESVTEQDSKDSTYSLSSTLTLSKADYEKHKVYACEVTHQGLSSPVTKSFNRGEC
notes: copies: 1 + 1 + 2
B5: GpH7-A5/GpH7-B3 variant P271_15Y/GpL16-k0 (antibody, human IgG1, kappa)
heavy 1: not shown
heavy 2: not shown
light: DIVMTQSPLSLPVTPGEPASISCQASESLVHSNRNTYLHWYLQKPGQSPQLLIYKVSNRFSGVPDRFSGSGSGTDFTLKISRVEAEDVGVYYCSQNTHVPPTFGQGTKVEIERTVAAPSVFIFPPSDEQLKSGTASVVCLLNNFYPREAKVQWKVDNALQSGNSQESVTEQDSKDSTYSLSSTLTLSKADYEKHKVYACEVTHQGLSSPVTKSFNRGEC
notes: copies: 1 + 1 + 2
B6: GpH7-A5/GpH7-B3 variant P271_16H/GpL16-k0 (antibody, human IgG1, kappa)
heavy 1: not shown
heavy 2: not shown
light: DIVMTQSPLSLPVTPGEPASISCQASESLVHSNRNTYLHWYLQKPGQSPQLLIYKVSNRFSGVPDRFSGSGSGTDFTLKISRVEAEDVGVYYCSQNTHVPPTFGQGTKVEIERTVAAPSVFIFPPSDEQLKSGTASVVCLLNNFYPREAKVQWKVDNALQSGNSQESVTEQDSKDSTYSLSSTLTLSKADYEKHKVYACEVTHQGLSSPVTKSFNRGEC
notes: copies: 1 + 1 + 2
B7: GpH7-A5/GpH7-B3 variant P271_18N/GpL16-k0 (antibody, human IgG1, kappa)
heavy 1: not shown
heavy 2: not shown
light: DIVMTQSPLSLPVTPGEPASISCQASESLVHSNRNTYLHWYLQKPGQSPQLLIYKVSNRFSGVPDRFSGSGSGTDFTLKISRVEAEDVGVYYCSQNTHVPPTFGQGTKVEIERTVAAPSVFIFPPSDEQLKSGTASVVCLLNNFYPREAKVQWKVDNALQSGNSQESVTEQDSKDSTYSLSSTLTLSKADYEKHKVYACEVTHQGLSSPVTKSFNRGEC
notes: copies: 1 + 1 + 2
B8: GpH7-A5/GpH7-B3 variant P271_19Q/GpL16-k0 (antibody, human IgG1, kappa)
heavy 1: not shown
heavy 2: not shown
light: DIVMTQSPLSLPVTPGEPASISCQASESLVHSNRNTYLHWYLQKPGQSPQLLIYKVSNRFSGVPDRFSGSGSGTDFTLKISRVEAEDVGVYYCSQNTHVPPTFGQGTKVEIERTVAAPSVFIFPPSDEQLKSGTASVVCLLNNFYPREAKVQWKVDNALQSGNSQESVTEQDSKDSTYSLSSTLTLSKADYEKHKVYACEVTHQGLSSPVTKSFNRGEC
notes: copies: 1 + 1 + 2
B9: GpH7-A5/GpH7-B3 variant P271_20W/GpL16-k0 (antibody, human IgG1, kappa)
heavy 1: not shown
heavy 2: not shown
light: DIVMTQSPLSLPVTPGEPASISCQASESLVHSNRNTYLHWYLQKPGQSPQLLIYKVSNRFSGVPDRFSGSGSGTDFTLKISRVEAEDVGVYYCSQNTHVPPTFGQGTKVEIERTVAAPSVFIFPPSDEQLKSGTASVVCLLNNFYPREAKVQWKVDNALQSGNSQESVTEQDSKDSTYSLSSTLTLSKADYEKHKVYACEVTHQGLSSPVTKSFNRGEC
notes: copies: 1 + 1 + 2
B10: GpH7-A5/GpH7-B3 variant P329_02A/GpL16-k0 (antibody, human IgG1, kappa)
heavy 1: not shown
heavy 2: not shown
light: DIVMTQSPLSLPVTPGEPASISCQASESLVHSNRNTYLHWYLQKPGQSPQLLIYKVSNRFSGVPDRFSGSGSGTDFTLKISRVEAEDVGVYYCSQNTHVPPTFGQGTKVEIERTVAAPSVFIFPPSDEQLKSGTASVVCLLNNFYPREAKVQWKVDNALQSGNSQESVTEQDSKDSTYSLSSTLTLSKADYEKHKVYACEVTHQGLSSPVTKSFNRGEC
notes: copies: 1 + 1 + 2
B11: GpH7-A5/GpH7-B3 variant P329_09D/GpL16-k0 (antibody, human IgG1, kappa)
heavy 1: not shown
heavy 2: not shown
light: DIVMTQSPLSLPVTPGEPASISCQASESLVHSNRNTYLHWYLQKPGQSPQLLIYKVSNRFSGVPDRFSGSGSGTDFTLKISRVEAEDVGVYYCSQNTHVPPTFGQGTKVEIERTVAAPSVFIFPPSDEQLKSGTASVVCLLNNFYPREAKVQWKVDNALQSGNSQESVTEQDSKDSTYSLSSTLTLSKADYEKHKVYACEVTHQGLSSPVTKSFNRGEC
notes: copies: 1 + 1 + 2
B12: GpH7-A5/GpH7-B3 variant P329_10E/GpL16-k0 (antibody, human IgG1, kappa)
heavy 1: not shown
heavy 2: not shown
light: DIVMTQSPLSLPVTPGEPASISCQASESLVHSNRNTYLHWYLQKPGQSPQLLIYKVSNRFSGVPDRFSGSGSGTDFTLKISRVEAEDVGVYYCSQNTHVPPTFGQGTKVEIERTVAAPSVFIFPPSDEQLKSGTASVVCLLNNFYPREAKVQWKVDNALQSGNSQESVTEQDSKDSTYSLSSTLTLSKADYEKHKVYACEVTHQGLSSPVTKSFNRGEC
notes: copies: 1 + 1 + 2

These binders were tested against T1, FcγRIIIa (human, UniProt P08637 17-208) (assay: SPR (Biacore);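 note: antibody variants captured on an SPR sensor chip, with FcγRIIIa passed over as analyte in HBS-EP+ buffer at 25 °C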).
T1 construct: extracellular domain; also called 3a; FcγRIIIa extracellular domain
T1 sequence (P08637 other isoform, or with tags, fused parts or gaps): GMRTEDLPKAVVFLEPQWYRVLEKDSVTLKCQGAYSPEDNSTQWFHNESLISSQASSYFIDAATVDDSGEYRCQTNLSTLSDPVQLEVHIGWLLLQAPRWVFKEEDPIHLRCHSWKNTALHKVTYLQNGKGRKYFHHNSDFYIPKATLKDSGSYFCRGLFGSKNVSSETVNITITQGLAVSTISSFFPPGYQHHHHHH

First: B1
Second: B2
The “He/Con 3a” value of the first is higher: 92.5 % of GpH7-A5/GpH7-B3/GpL16-k0 for the first, 87.6 % of GpH7-A5/GpH7-B3/GpL16-k0 for the second.

Going from B3 to B4, the “He/Con 3a” value falls from 79.8 % of GpH7-A5/GpH7-B3/GpL16-k0 to 59.2 % of GpH7-A5/GpH7-B3/GpL16-k0.

Going from B5 to B6, the “He/Con 3a” value rises from 62.7 % of GpH7-A5/GpH7-B3/GpL16-k0 to 70.3 % of GpH7-A5/GpH7-B3/GpL16-k0.

Going from B7 to B8, the “He/Con 3a” value falls from 94 % of GpH7-A5/GpH7-B3/GpL16-k0 to 84.6 % of GpH7-A5/GpH7-B3/GpL16-k0.

First: B9
Second: B10
The “He/Con 3a” value of the first is higher: 77.8 % of GpH7-A5/GpH7-B3/GpL16-k0 for the first, 55.2 % of GpH7-A5/GpH7-B3/GpL16-k0 for the second.

First: B11
Second: B12
The “He/Con 3a” value of the first is lower: 52.5 % of GpH7-A5/GpH7-B3/GpL16-k0 for the first, 52.7 % of GpH7-A5/GpH7-B3/GpL16-k0 for the second.
